This assay addresses mTOR^ΔN-mLST8 complex (human) (UniProt P42345).

Consider “S6K1^367–404 wild type (from UniProt P23443-2 367-404) (peptide)”, for which the KM of S6K1^367–404 phosphorylation by mTOR^ΔN-mLST8 is 430 µM.

Values taken from publication PMC5750076.
